# Reference: paper PMC7877763
# Legend:
# [1] = biological target: GPR-foldon (foldon stabilized collagen model peptide containing a (GPP)5GPR(GPP)6 collagen sequence); assay: BLI; biotinylated GPR-foldon immobilised on streptavidin biosensors, blocked with 10 uM biocytin; HSP47 in solution; 50 mM Tris, 150 mM NaCl, pH 7.5 (TBS); kon and koff fitted with a 1:1 Langmuir model, KD = koff/kon
# [2] = biological target: GPR-foldon (foldon stabilized collagen model peptide containing a (GPP)5GPR(GPP)6 collagen sequence); assay: ELISA; ELISA-like binding assay; type I collagen from rat tail coated at 10 ug/mL on MaxiSorp plates (coating of GPR-foldon not described); His-tagged HSP47 at 1.2 to 5,000 nM in solution; detected with HRP-coupled anti-His antibody; four-parameter logistic fit
Substance,Kd [1] [nM],Kd [2] [nM]
recombinant canine HSP47-R222S (from UniProt C7C419 36-418) (natural protein),11500,1500
recombinant wild-type canine HSP47 (from UniProt C7C419 36-418) (natural protein),409,56
